Experiment [1] addresses γ-globulin formulation (KAKETSUKEN) that was a human antibody (human). The experiment can be described thus: batch adsorption: 0.5 mL of 10 mg/mL IgG on 0.05 mL FcRm48-immobilised gel, PBS pH 7.0, eluted at pH 3.0, A280.
For experiment [2] the target is unchanged. The experiment can be described thus: batch adsorption: 0.5 mL of 10 mg/mL IgG on 0.05 mL FcRm48-immobilised gel (13.6 mg FcRm48 per mL gel), PBS pH 7.0, eluted at pH 3.0, A280.
Experiment [3] shares this target. The experiment can be described thus: column of FcRm48-immobilised gel loaded with IgG in PBS pH 7.0; eluted with 100 mM citric acid buffer of the given pH; R=A/(A+B)x100, A280.
Experiment [4] has the same target. The experiment can be described thus: batch adsorption: 3.0 mL of 10 mg/mL IgG on 0.5 mL FcRm56b-immobilised gel, PBS pH 7.0, eluted at pH 3.0, A280.
Experiment [5] shares this target. The experiment can be described thus: column of FcRm56b-immobilised gel loaded with IgG in PBS pH 7.0; eluted with 100 mM citric acid buffer of the given pH; R=A/(A+B)x100, A280.
The target is the same in experiment [6]. The experiment can be described thus: batch adsorption: 3.0 mL of 10 mg/mL IgG on 0.5 mL FcRm56b-immobilised gel (18.7 mg FcRm56b per mL gel), PBS pH 7.0, eluted at pH 3.0, A280.
Experiment [7] has the same target. The experiment can be described thus: column of FcRm57b-immobilised gel loaded with IgG in PBS pH 7.0; eluted with 100 mM citric acid buffer of the given pH; R=A/(A+B)x100, A280.
For experiment [8] the target is unchanged. The experiment can be described thus: batch adsorption: 3.0 mL of 10 mg/mL IgG on 0.4 mL FcRm57b-immobilised gel, PBS pH 7.0, eluted at pH 3.0, A280.
Experiment [9] shares this target. The experiment can be described thus: batch adsorption: 3.0 mL of 10 mg/mL IgG on 0.4 mL FcRm57b-immobilised gel (14.2 mg FcRm57b per mL gel), PBS pH 7.0, eluted at pH 3.0, A280.
For experiment [10] the target is unchanged. The experiment can be described thus: batch adsorption: 0.5 mL of 10 mg/mL IgG on 0.1 mL FcRm19-immobilised gel, PBS pH 7.0, eluted at pH 3.0, A280.
Experiment [11] shares this target. The experiment can be described thus: column of FcRm19-immobilised gel loaded with IgG in PBS pH 7.0; eluted with 100 mM citric acid buffer of the given pH; R=A/(A+B)x100, A280.
Experiment [12] shares this target. The experiment can be described thus: batch adsorption: 0.5 mL of 10 mg/mL IgG on 0.1 mL FcRm19-immobilised gel (23.0 mg FcRm19 per mL gel), PBS pH 7.0, eluted at pH 3.0, A280.
For experiment [13] the target is unchanged. The experiment can be described thus: ELISA: human γ-globulin coated 1 µg/well, culture supernatant diluted 5x, HRP anti-His-Tag detection.
For experiment [14] the target is unchanged. The experiment is described as above. The source holds these as a separate data set.
For experiment [15] the target is unchanged. The experiment can be described thus: batch adsorption: 0.5 mL of 10 mg/mL IgG on 0.1 mL FcRm32-immobilised gel (19.3 mg FcRm32 per mL gel), PBS pH 7.0, eluted at pH 3.0, A280.
Experiment [16] has the same target. The experiment can be described thus: column of FcRm32-immobilised gel loaded with IgG in PBS pH 7.0; eluted with 100 mM citric acid buffer of the given pH; R=A/(A+B)x100, A280.
Experiment [17] has the same target. The experiment can be described thus: batch adsorption: 0.5 mL of 10 mg/mL IgG on 0.1 mL FcRm32-immobilised gel, PBS pH 7.0, eluted at pH 3.0, A280.
Experiment [18] shares this target. The experiment can be described thus: batch adsorption: 0.5 mL of 10 mg/mL IgG on 0.05 mL FcRm36b-immobilised gel (21.0 mg FcRm36b per mL gel), PBS pH 7.0, eluted at pH 3.0, A280.
The target is the same in experiment [19]. The experiment can be described thus: batch adsorption: 0.5 mL of 10 mg/mL IgG on 0.05 mL FcRm36b-immobilised gel, PBS pH 7.0, eluted at pH 3.0, A280.
Experiment [20] shares this target. The experiment can be described thus: column of FcRm36b-immobilised gel loaded with IgG in PBS pH 7.0; eluted with 100 mM citric acid buffer of the given pH; R=A/(A+B)x100, A280.

The source of these data is patent US20130079499A1.

Substitutions are numbered along the chain they refer to. Read-outs that look alike come from different tables or passages of the source.

B1: Fc binding protein FcRm48 (48 amino acids of a wild-type Fc binding protein substituted) (receptor)
chain: KIEEAMGQVDTPKAVIKLQPPWVSVFLGESVTMHCEAPHLSGTGSTQWFLNDTAIQASTPTYHITSASEDDSGEYRCQRGLSGRSDPILLEVHRGWLLLQVSSRVLTEGEPLALRCHAWRDKQVHNVLFYHNGKAFKFFHRNSTLTIPRTNTSHSGTYHCSGMGRHRYTSAGTLVSVKELFPAPVLTASVTSPLHEGTQVTLSCVTKLLIQRPGLQLYFSFYKGSKTLRGRDTSSEYQILAARREDSGLYWCVAATEDGNVLKRSPELELQVLGHQQPTPVHHHHHH
B1 yielded an amount of eluted IgG in experiment [1] of 0.94 mg. The same molecule gave an amount of adsorbed IgG per mL of the gel (mg per mL of gel) in [2] of 18.8. In experiment [3], the percentage of antibody elution at pH 3.0 stood at 99.2%, the percentage of antibody elution at pH 3.4 is 100%, the percentage of antibody elution at pH 3.8 was found to be 98.2% and the percentage of antibody elution at pH 4.2 is 81.9%.

B2: Fc binding protein FcRm56b (56 amino acids of a wild-type Fc binding protein substituted) (receptor)
chain: KIEEAMGQVDTPKAVIKLQPPWVSVFLGESVTMLCEVPHLSGAGSTQWFRNDTAIQASTPTYHIASASEDDSGEYRCQRGLSGRSDPILLEVHRGWLLLQVSARVLIEGEPLVLRCHAWRDKQVHNVLFYHNGKAFKFFHRNTTLTIPRTNTSHSGTYHCSGMGRHRYTSAGTLVSVKELFPAPVLTASVASPLHEGTQVTLSCVTKLLIQRPGLQLYFSFYKGSETLRGRDTSSEYQILAARREDSGLYWCEAATEDGNVVKRSPELELQVLGHQQPTPVHHHHHH
Take B2: the amount of eluted IgG in [4] stood at 11.5 mg. In experiment [5], the percentage of antibody elution at pH 3.0 was 99.7%, the percentage of antibody elution at pH 3.4 stood at 99.5%, the percentage of antibody elution at pH 3.8 was found to be 94.5% and the percentage of antibody elution at pH 4.2 was found to be 73%. In experiment [6], this molecule displayed an amount of adsorbed IgG per mL of the gel (mg per mL of gel) of 23.

B3: Fc binding protein FcRm57b (57 amino acids of a wild-type Fc binding protein substituted) (receptor)
chain: B2 chain with Y62F, Q123L, H195L, Q199P, Y222F, S225G
B3: in [7], the percentage of antibody elution at pH 3.0 came out at 99.3%, the percentage of antibody elution at pH 3.4 is 99.6%, the percentage of antibody elution at pH 3.8 was determined as 90.2% and the percentage of antibody elution at pH 4.2 came to 66.2%. In [8], this molecule returned an amount of eluted IgG of 6.67 mg. Moreover, the amount of adsorbed IgG per mL of the gel (mg per mL of gel) in [9] is 16.7.

B4: Fc binding protein FcRm19 (19 amino acids of a wild-type Fc binding protein substituted) (receptor)
chain: KIEEAMGQVDTPKAVIKLQPPWVSVFQEESVTLHCEVPHLPGSSSTQWFLNGTAIQTSTPTYHITSASEDDSGEYRCQRGLSGRSDPIQLEVHRGWLLLQVSSRVLTEGEPLALRCHAWKDKLVYNVLYYRNGKAFKFFHWNSNLTILKTNMSHSGTYHCSGMGKHRYTSAGISVTVKELFPAPVLTASVTSPLLEGTPVTLSCETKLLLQRPGLQLYFSFYMGSKTLRGRDTSSEYQILTARREDSGLYWCEAATEDGNVLKRSPELELQVLGHQQPTPVHHHHHH
B4 displayed an amount of the eluted IgG in [10] of 2.1 mg. In experiment [11], this molecule displayed a percentage of antibody elution at pH 3.0 of 99.1%, a percentage of antibody elution at pH 3.4 of 87.4%, a percentage of antibody elution at pH 3.8 of 51.3% and a percentage of antibody elution at pH 4.2 of 22%. In experiment [12], the amount of adsorbed IgG per mL of the gel (mg per mL of gel) worked out at 21.

B5: wild-type Fc binding protein (Fc binding protein with no amino acid substitution) expressed by the pETFcR transformant (receptor)
chain: KIEEAMGQVDTTKAVITLQPPWVSVFQEETVTLHCEVLHLPGSSSTQWFLNGTATQTSTPSYRITSASVNDSGEYRCQRGLSGRSDPIQLEIHRGWLLLQVSSRVFTEGEPLALRCHAWKDKLVYNVLYYRNGKAFKFFHWNSNLTILKTNISHNGTYHCSGMGKHRYTSAGISVTVKELFPAPVLNASVTSPLLEGNLVTLSCETKLLLQRPGLQLYFSFYMGSKTLRGRNTSSEYQILTARREDSGLYWCEAATEDGNVLKRSPELELQVLGLQLPTPVHHHHHH
Take B5: the OD450 nm was 0.22 OD450 nm in experiment [13] and 0.14 OD450 nm in [14].

B6: Fc binding protein FcRm32 (32 amino acids of a wild-type Fc binding protein substituted) (receptor)
chain: KIEEAMGQVDTPKAVIKLQPPWVSVFQGESVTLHCEAPHLSGSSSTQWFLNDTAIQASTPTYHITSASEDDSGEYRCQRGLSGRSDPIQLEVHRGWLLLQVSSRVLTEGEPLALRCHAWKDKLVHNVLYYHNGKAFKFFHRNSNLTIPKTNTSHSGTYHCSGMGRHRYTSAGTSVTVKELFPAPVLTASVTSPLHEGTQVTLSCETKLLLQRPGLQLYFSFYKGSKTLRGRDTSSEYQILTARREDSGLYWCEAATEDGNVLKRSPELELQVLGHQQPTPVHHHHHH
In the case of B6, in experiment [15], the amount of adsorbed IgG per mL of the gel (mg per mL of gel) is 19.8. Also, in experiment [16], the percentage of antibody elution at pH 3.0 came out at 98.7%, the percentage of antibody elution at pH 3.4 came out at 99.3%, the percentage of antibody elution at pH 3.8 worked out at 97.9% and the percentage of antibody elution at pH 4.2 turned out to be 82.8%. In [17], this molecule returned an amount of eluted IgG of 1.98 mg.

B7: Fc binding protein FcRm36b (36 amino acids of a wild-type Fc binding protein substituted) (receptor)
chain: B6 chain with Q27L, L33M, S44G, N144T
B7 had an amount of adsorbed IgG per mL of the gel (mg per mL of gel) in experiment [18] of 28.8. The molecule further returned an amount of eluted IgG in [19] of 1.44 mg. In experiment [20], this molecule showed a percentage of antibody elution at pH 3.0 of 99.5%, a percentage of antibody elution at pH 3.4 of 99.4%, a percentage of antibody elution at pH 3.8 of 92.2% and a percentage of antibody elution at pH 4.2 of 64%.
